In patent US20240352105A1, “COMPOSITIONS AND METHODS FOR NEUTRALIZING ANTIGENS” (PACAGEN, INC, priority 2023, published 2024):
“And” between values parts separate entries of the source, which are not always exact repeats. Identical values can stand only once.

Experiments:
[1] = system: biotinylated anti-His antibody; assay: Recombinant Can f1-His ELISA binding assay
Protocol: (§1) In order to obtain single variable domain on heavy chain, i.e., VHH, specific for dog allergen Can f1, a recombinant His-tagged Can f1 was prepared, which reached high purity, as shown via SDS-Page Western blotting in FIG. 4. To confirm this, an ELISA was performed measuring optical density when the recombinant Can f1-His is incubated with a biotinylated anti-His antibody. As summarized in Table 4, the recombinant Can f1-His was effectively bound by the antibody.

[2] = biological target: T1, recombinant His-tagged Can f1 (dog (Canis familiaris), UniProt O18873 19-174); assay: ELISA, antigen coated
T1 construct: also called Can f1-His; recombinant Can f1; not shown: His tag
Protocol: (§2) 2 microgram per milliliter (μg/mL) target antigen is coated in a 96-well plate and ELISA assay is performed after incubation with candidate VHHs. The binding EC50 of each clone is calculated using Prism GraphPad. The positive control antibody is involved as an internal control.
(§3) Isolated VHH clones were further validated by performing an ELISA assay as described in Example 1. Metrics of thermostability including melting temperature (Tₘ), onset temperature (Tₒₙₛₑₜ), and temperature of aggregation (Tagg), were also tested with increasing temperature in the range of 20° C.-95° C. at the speed of 1° C./min. The individual binding curves are shown for each candidate in FIGS. 5B-5H.

[3] = Thermostability (Tm, Tonset, Tagg) by Nanotemper DSF; format: physicochemical; parameters: key to Tm2 / Tagg / Tm1 / Tm / Tm3 / Tonset / Tonset ø (mean) / Tagg ø (mean): temperatures in °C; details: for Tm1: first melting point; for Tm2: second melting point; for Tm: single melting point
Protocol: as §3, with “(Tm),” for “(Tₘ),”, “(Tonset),” for “(Tₒₙₛₑₜ),”, “C./min. These measurements were performed using a Nanotemper DSF. When applicable, Tm1 refers to the first melting point observed, Tm2 refers to the second melting point observed, etc., Sequence information for the VHH clones and the binding assay results are summarized in Table 3.” for “C./min.”, “3B-3I.” for “5B-5H.”
as §3, with “(Tm),” for “(Tₘ),”, “(Tonset),” for “(Tₒₙₛₑₜ),”
as §3, with “(Tm),” for “(Tₘ),”, “(Tonset),” for “(Tₒₙₛₑₜ),”, “7B-7P.” for “5B-5H.”
The detailed thermostability graphs used to determine the Tm, Tonset, and Tagg are illustrated in FIGS. 19A-19I and raw data is summarized in Table 23. Any subsequent melting points observed (Tm1, Tm2, Tm3, etc.) are separated by commas.

[4] = system: biotinylated anti-His antibody; assay: Recombinant Can f2-His ELISA binding assay
Protocol: as §1, with “f2,” for “f1,”, “f2” for “f1”, “6.” for “4.”, “f2-His” for “f1-His”, “7,” for “4,”

[5] = system: known Der p2 antibody (clone 6OY4); assay: Recombinant Der p2-His ELISA binding assay
Protocol: In order to obtain single variable domain on heavy chain, i.e., VHH, specific for dust mite allergen Der p2, a recombinant His-tagged Der p2 was prepared, which reached high purity, as shown via SDS-Page Western blotting in FIG. 2. To confirm this, an ELISA was performed. Briefly, the Der p2-HIS was coated onto an ELISA plate and a known Der p2 antibody (clone 6OY4) was added. A secondary detection antibody capable of binding to the Der p2 antibody was then added. The secondary detection antibody was conjugated to a horseradish peroxidase, which can be utilized to produce a colorimetric reaction. Then, optical density was measured. As summarized in Table 1, the recombinant Der p2-His was effectively bound by the antibody.

[6] = biological target: T2, Fel D1 (Felis catus, UniProt P30438); assay: ELISA binding assay of anti-Fel d1 VHH clones on Fel D1 epitopes; parameters: species or system cat
T2 construct: made in house; host or cells: chemically synthesized peptides
Protocol: as §2
Four distinct epitopes of Fel D1 were selected to be used for further identification. Peptides were synthesized for the four epitopes for VHH identification.
Isolated VHH clones were further validated by performing an ELISA assay as described in Example 1. Binding results are shown in FIG. 15B-15D for the epitope of SEQ ID NO: 61. Binding results are shown in FIG. 16 for the epitope of SEQ ID NO: 59. Binding results are shown in FIG. 17A-17E for the epitope of SEQ ID NO: 60. Binding results are shown in FIG. 18 for the epitope of SEQ ID NO: 58.

[7] = anti-Can f1 VHH, 20° C.-95° C. at 1° C./min
[8] = anti-Can f1 VHH, in °C (unit assumed)
[9] = Epitope Recognized ENARILKNCVDAKM (SEQ ID NO: 61)
[10] = Average of two replicates, anti-Fel d1 VHH
[11] = Average of two replicates, anti-Fel d1 VHH, in °C (unit assumed)
[12] = Replicate 1, in °C (unit assumed)
[13] = Replicate 2, in °C (unit assumed)
[14] = anti-Fel d1 VHH, in °C (unit assumed)

T1 sequence (O18873 19-174 limits assumed): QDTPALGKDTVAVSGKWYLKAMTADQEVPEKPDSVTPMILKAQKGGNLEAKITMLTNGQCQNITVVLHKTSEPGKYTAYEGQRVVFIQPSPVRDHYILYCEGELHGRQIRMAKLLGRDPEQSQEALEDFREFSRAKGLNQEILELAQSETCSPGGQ

## Can f1-His: recombinant His-tagged dog allergen Can f1
[1]; Can f1-His Concentration 0.00064 μg/mL
  OD at 450 nm: 0.07 and 0.11
[1]; Can f1-His Concentration 0.0032 μg/mL
  OD at 450 nm: 0.09 and 0.11
[1]; Can f1-His Concentration 0.016 μg/mL
  OD at 450 nm: 0.09 and 0.12
[1]; Can f1-His Concentration 0.08 μg/mL
  OD at 450 nm: 0.15 and 0.16
[1]; Can f1-His Concentration 0.4 μg/mL
  OD at 450 nm: 0.21 and 0.24
[1]; Can f1-His Concentration 2 μg/mL
  OD at 450 nm: 0.95 and 1.03
[1]; Can f1-His Concentration 10 μg/mL
  OD at 450 nm: 2.84 and 2.92

B1: SDAB22112-2-B06 (VHH)
VHH: QVQLVESGGGLVQPGGSLRLSCAASGFTFRLAAMGWYRQAPEKEREWVASITGPGTDTNYADSVKGRFTVSRDNAKNTVYLQMNSLKPEDTAVYYCRGMGYWGKGTLVTVSS
notes: anti-Can f1 alpaca VHH
[2]
  EC50: 0.144 µg/mL
[3]; [7]
  Tagg: 48.00
[3]; [8]
  Tm1: 56.38
  Tm2: 63.74
[3]; anti-Can f1 VHH, third melting point, in °C (unit assumed)
  Tm3: 70.13

B2: Can f2-His: recombinant His-tagged dog allergen Can f2 (protein)
chain: QEGNHEEPQGGLEELSGRWHSVALASNKSDLIKPWGHFRVFIHSMSAKDGNLHGDILIPQDGQCEKVSLTAFKTATSNKFDLEYWGHNDLYLAEVDPKSYLILYMINQYNDDTSLVAHLMVRDLSRQQDFLPAFESVCEDIGLHKDQIVVLSDDDRCQGSRD
modifications: left off: small tags and cut ends
[4]; Can f2-His Concentration 0.00064 μg/mL
  OD at 450 nm: 0.10 and 0.11
[4]; Can f2-His Concentration 0.0032 μg/mL
  OD at 450 nm: 0.11
[4]; Can f2-His Concentration 0.016 μg/mL
  OD at 450 nm: 0.10 and 0.11
[4]; Can f2-His Concentration 0.08 μg/mL
  OD at 450 nm: 0.12 and 0.13
[4]; Can f2-His Concentration 0.4 μg/mL
  OD at 450 nm: 0.22 and 0.19
[4]; Can f2-His Concentration 2 μg/mL
  OD at 450 nm: 0.57 and 0.65
[4]; Can f2-His Concentration 10 μg/mL
  OD at 450 nm: 1.12 and 1.07

B3: SDAB22112-1-D12 (VHH)
VHH: AVQLVDSGGGLVQAGGSLRLACAASGRTFDTYAVGWFRQAPGKERDVVASITWTSGSTWYADFVKGRFTISKDNAKNTVYLQMNNLSPEDTAVYYCGARNQIYTRWDSWGQGTQVTVSS
notes: anti-Can f1 alpaca VHH
[2]
  EC50: 4.01 µg/mL
[3]; [7]
  Tagg: 49.15
[3]; [8]
  Tm: 57.78

B4: Der p2-His: recombinant His-tagged dust mite allergen Der p2 (protein)
chain: DQVDVKDCANHEIKKVLVPGCHGSEPCIIHRGKPFQLEAVFEANQNTKTAKIEIKASIDGLEVDVPGIDPNACHYMKCPLVKGQQYDIKYTWNVPKIAPKSENVVVTVKVMGDDGVLACAIATHAKIRD
modifications: left off: small tags and cut ends
[5]; Der p2-His Concentration 0.00064 μg/mL
  OD at 450 nm: 0.07 and 0.09
[5]; Der p2-His Concentration 0.0032 μg/mL
  OD at 450 nm: 0.09 and 0.10
[5]; Der p2-His Concentration 0.016 μg/mL
  OD at 450 nm: 0.11 and 0.12
[5]; Der p2-His Concentration 0.08 μg/mL
  OD at 450 nm: 0.38 and 0.35
[5]; Der p2-His Concentration 0.4 μg/mL
  OD at 450 nm: 1.31 and 1.37
[5]; Der p2-His Concentration 2 μg/mL
  OD at 450 nm: 4.06 and 4.02
[5]; Der p2-His Concentration 10 μg/mL
  OD at 450 nm: 4.61 and 4.57

B5: SDAB22110-1-1-B9-1: anti-Fel d1 VHH clone, SEQ ID NO: 50 (protein)
VHH: DVQLVESGGGWVQPGGSLRLSCAASGFTFTSYALSWVRQAPGKGLEWVSLADARGTSTTYADSVKGRFTISKDNPRNTLYLLMNSLKPEDTAVYYCTKGFDGNWYPDYDYWGQGTQVTVSS
[6]; [9]
  EC50: 14.440 µg/mL
[3]; [10]
  Tagg ø (mean): 41.73
  Tonset ø (mean): 42.07
[3]; [11]
  Tm ø (mean), first melting point (Tm1): 54.03
  Tm ø (mean), second melting point (Tm2): 63.20
[3]; Replicate 1
  Tagg: 41.73
  Tonset: 42.11
[3]; [12]
  Tm, first melting point (Tm1): 53.95
  Tm, second melting point (Tm2): 63.26
[3]; Replicate 2
  Tagg: 41.73
  Tonset: 42.04
[3]; [13]
  Tm, first melting point (Tm1): 54.10
  Tm, second melting point (Tm2): 63.15
[3]; anti-Fel d1 VHH
  Tagg: 41.73
  aggregates: Possible
[3]; [14]
  Tm1: 54.03
  Tm2: 63.20

B6: SDAB22110-3-2-H08: anti-Fel d1 VHH clone, SEQ ID NO: 53 (protein)
VHH: QVQLVESGGGLVQPGGSLRLSCAASGFTFSRKGMSWYRQVPGKEREWVARIYSTGEKTDYADSVKGRFTISRDNAKNMVYLDMNSLKPEDTAVYYCKAWGYEYWNQGTQVTVSS
[6]; Epitope Recognized AKMTEEDKENALS (SEQ ID NO: 60)
  EC50: 5.024 µg/mL
[3]; [10]
  Tagg ø (mean): 42.30
  Tonset ø (mean): 37.18
[3]; [11]
  Tm ø (mean), first melting point (Tm1): 47.50
[3]; Replicate 1
  Tagg: 42.41
  Tonset: 37.03
[3]; [12]
  Tm, first melting point (Tm1): 47.46
[3]; Replicate 2
  Tagg: 42.19
  Tonset: 37.34
[3]; [13]
  Tm, first melting point (Tm1): 47.53
[3]; anti-Fel d1 VHH
  Tagg: 35.68
[3]; [14]
  Tm: 42.43

B7: SDAB22110-1-1-E4: anti-Fel d1 VHH clone, SEQ ID NO: 51 (protein)
VHH: QLQLVESGGGLVQPGGSLRLSCTASGFTFSTAGTSWYRQSPGKARKLVAELSRIGGIANYADSVKGRFTISRDNTRNTVYLQMNSLKPEDTAVYYCKVVTNRNYGFTYWGQGTQVTVSS
[6]; [9]
  EC50: 3.305 µg/mL
[3]; [10]
  Tagg ø (mean): 39.61
  Tonset ø (mean): 40.64
[3]; [11]
  Tm ø (mean), first melting point (Tm1): 50.69
[3]; Replicate 1
  Tagg: 39.62
  Tonset: 40.60
[3]; [12]
  Tm, first melting point (Tm1): 50.73
[3]; Replicate 2
  Tagg: 39.61
  Tonset: 40.64
[3]; [13]
  Tm, first melting point (Tm1): 50.66
[3]; anti-Fel d1 VHH
  Tagg: 42.78
  aggregates: Possible
[3]; [14]
  Tm1: 41.13
  Tm2: 52.88
